Results from patent publication US7754216B2, “Method of treating multiple sclerosis with anti-K6 antibody” (Mayo Foundation for Medical Education and Research, priority 2002, dated 2010).

Columns and labels:
K6 mRNA in spinal cord = K6 mRNA in spinal cord after kainic acid excitotoxic injury; format: in vivo, rat; conditions: three days after intraperitoneal KA
Source text: Levels of K6 mRNA in adult rat spinal cord were increased in both white and gray matter following kainic acid (KA)-induced excitotoxic injury. Dark-field photomicrographs (FIG. 1) show the autoradiographic localization of K6 mRNA in a transverse section through the spinal cord of a control rat, and in parallel sections of paired experimental rats at 3 and 7 days after intraperitoneal injection of KA. By three days after KA treatment, K6 mRNA was 2-fold higher in the white matter and 1.5-fold higher in the dorsal horn (DH) and ventral horn (VH) of the spinal cord gray matter, compared to controls (P<0.05).

[1] = target: rat myelin basic protein (MBP) (UniProt P02688)
[2] = target: T1, recombinant rat myelin oligodendrocyte glycoprotein (αMOG), extracellular domain, amino acids 1-125 (UniProt Q63345)
T1 sequence: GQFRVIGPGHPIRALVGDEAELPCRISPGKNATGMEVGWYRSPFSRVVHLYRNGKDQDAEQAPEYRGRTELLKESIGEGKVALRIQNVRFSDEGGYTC

Sequence of UniProt P02688 (P02688 2-195): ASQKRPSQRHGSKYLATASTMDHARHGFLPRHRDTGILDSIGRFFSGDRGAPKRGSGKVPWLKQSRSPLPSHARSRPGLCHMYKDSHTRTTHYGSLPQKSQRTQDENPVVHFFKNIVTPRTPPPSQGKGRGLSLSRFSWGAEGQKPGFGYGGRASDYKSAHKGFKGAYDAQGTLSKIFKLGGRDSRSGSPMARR

Compound: C=C(C)[C@H]1CN[C@H](C(=O)O)[C@H]1CC(=O)O [KA, kainic acid]
- K6 mRNA in dorsal horn (DH) and ventral horn (VH) gray matter compared to controls (K6 mRNA in spinal cord): 1.5 fold
- K6 mRNA in spinal cord white matter compared to controls (K6 mRNA in spinal cord): 2 fold

Compound: K6 (recombinant; species not stated where used)
- degradation on 7.5% SDS-PAGE (collagen type I): Collagen type I was degraded within 5 minutes of K6 addition
- degradation on 7.5% SDS-PAGE (fibronectin): Fibronectin was partially degraded within 1 hour of K6 addition and was completely degraded by 24 hours
- degradation on 7.5% SDS-PAGE (laminin): Laminin was partially degraded by one hour after K6 addition, and was completely degraded by 16 hours

Compound: recombinant rat K6 (r-K6)
- degradation on 16.5% Tricine SDS-PAGE [1]: MBP was partially degraded by 10 minutes after addition of K6, and showed much greater levels of degradation at 30 minutes and 60 minutes
- degradation on 16.5% Tricine SDS-PAGE [2]: αMOG was partially degraded by 1 hour after addition of K6, and was completely degraded by 4 hours
